According to publication doi:10.1101/744821 (bioRxiv, 2019):

B1: His6-EGFP-KRIT1(WT) FERM domain (417-736) (domain or fragment, human, UniProt O00522 417-736, looked up)
chain: KPYEKVRIYRMDGSYRSVELKHGNNTTVQQIMEGMRLSQETQQYFTIWICSENLSLQLKPYHKPLQHVRDWPEILAELTNLDPQRETPQLFLRRDVRLPLEVEKQIEDPLAILILFDEARYNLLKGFYTAPDAKLITLASLLLQIVYGNYESKKHKQGFLNEENLKSIVPVTKLKSKAPHWTNRILHEYKNLSTSEGVSKEMHHLQRMFLQNCWEIPTYGAAFFTGQIFTKASPSNHKVIPVYVGVNIKGLHLLNMETKALLISLKYGCFMWQLGDTDTCFQIHSMENKMSFIVHTKQAGLVVKLLMKLNGQLMPTERNS

Tests used:
[1] = target: T1, biotinylated HEG1 cytoplasmic tail (a.a. 1274-1381) (UniProt Q9ULI3 1274-1381, biotin on the in vivo biotinylation peptide tag); experiment: flow cytometry on beads
T1 sequence (looked up): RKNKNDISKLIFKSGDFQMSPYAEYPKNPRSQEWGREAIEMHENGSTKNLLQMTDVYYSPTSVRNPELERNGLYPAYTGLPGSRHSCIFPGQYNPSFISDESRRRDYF

[2] = target: B1; experiment: flow cytometry on beads

Row | Binder | EC50 [1] [nM] | IC50 [2] [nM]
1 | B1 | 32.4 | –
2 | SRRRDYF (peptide, UniProt Q9ULI3 1375-1381, looked up) [non-biotinylated HEG1 7-mer peptide (residues 1375-1381)] | – | 410
